Data published in the nanobody polyreactivity screen of Harvey et al. (2022).

Experiment: yeast display, Sf9 membrane polyspecificity reagent, FACS + sequencing; frameworks hold sequencing errors
Method in brief: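 Sorting gates, low and high (top ~1%), were placed on anti-HA fluorescence to track expression and on streptavidin fluorescence to track reagent binding. A clone's polyreactivity label is taken from the gate it came out of. The reagent was 10% biotinylated, detergent-solubilized Sf9 membrane, applied for 1 hour at 4 °C to galactose-induced yeast display cells.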

Row | Sequence | polyreactivity (PSR sort gate)
1 | QVQLVESGGGLVQAGGSLRLSCAASGRIFFANAMGWYRQAPGKEWELVGAISRGGRTNYADSVKGRFTISRDNAKNTVYLQMNSLKPEDTAVYYFAAVRLSHAPSYYLYGMAYWGHGTQVTVSS | low polyreactivity
2 | QVQLVESGGGLVQAGGSLRLSCAASGFIFRPYAMGWYRQAPGKERELVAALTGGGSTYYADSVKGRFTISRDNAKNTVYLQMNSLKPEDTAVYYCNADRRRRSGGFAAWHFQRNDYWGQGTQVSVSS | low polyreactivity
3 | QVQLVESGGGLVQAGGSLRLSCAASGSIFKYYAMGWYRQAPGKERELVAAISSSGNTYYADSVKGRFTISRDNAKNTVYLQMNSLKPEDTAVYYCNAYRPGEMDYWGQGTQVTVSS | high polyreactivity
4 | QVQLVESGGGLVQAGGSLRLSCAASGSILREYTMGWSRQAPGKEMELVAAITYSGDSTYYADSVKGRFTISRDNAKNTVYLHMNSLKPEDTAVYYCNKKYRSRWQGPFDYWGQGTLVTVSS | high polyreactivity
5 | QVQLVESGGGLVQAGGSLRLSCAASGISFSYYAMGWYRQAPGKERELVAAITSSGGSTYYADSVKGRFTISRDNEKNTVYLQMTSLKPEDTAVYYCNAKRAPWGTLYNYWGLGTQVTVSS | high polyreactivity
6 | QVQLVESGGGLVQAGGSLRLSCAASGSIFTYNAMGWYRKAPGKERELVAVISWSGGSTYYADSVKGRFTISRDNAKNTVYLQMNSLKPEDTAVYYCNSDYYRPYGNKYGYWGQGTQVTVSS | high polyreactivity
7 | QVQLVESGGGLVQAGGSLRLSCAASGSIFDVNTMGWYRQAPGKERELVASITSSGSTYYADSVKGRFTISRDNAKNTVYLQMNSLKPEDTAVYYCAAASGGTVVGEGDYWGQGSQVTVSS | low polyreactivity
8 | QVQLVESGGGLVQAGGSLRLSCAASGVTFYYYAMGWYRQAPGKERELVASITSTDSTTYADSVKGRFTISRDNAKNTVYLQMNRLKPEDTAVYYCNRLYNHWYGGLDYWGQGTQVTVSS | high polyreactivity
9 | QVQLVESGGGLVQAGGSLRLSCAASGSIFDVNAMGWYRQAPGKERELVAAISDSGGSTYYADSVKGRFTISRDNAKNTVYLQMNSLKPEDTAVYYCNADWSWYNYYDLDYWGQGTQVTVSS | low polyreactivity
10 | QVQLVESGGGLVQAGCSLRLSCSASGSIFRNNAMGWYRPAHGKERELVAAITSTGTGTYYADSLKGRFTISRDNAKNTVYLQMNSLKPEDTAVYYCSVDDDFEFVYWGQGTQVTVSS | low polyreactivity
11 | QVQLVESGGGLVQAGGSLRLSCAASGITLAIYAMGWYRQAPGKERELVAAISSSGASTYYADSVKGRFTISRDNAKNTVYILMNSLKPEDTAVYYCAAAYGGSSYEYNYWGQGTQVTVSS | low polyreactivity
12 | QVQLVESGGGVVQAGGSLRLICAATGSIFGYAMGWYRQAPGKERELVGAISFSGVSTYYADSVMGRFTISRDNAKNTVYLEMNSLKPEDTAVYYSNAYSDGDEDYWGQGTQGTVSS | low polyreactivity
13 | KVQLVESGAGFVQAGGSLRLSCAASGFIFPVYTMGWYRQAPGKERELVAAITQIGGSTHYADSVKGRFTISRDNAKNTVYLQMNSLKPEYTAVYYCNAVPHPYDWGQGTQVTLSS | low polyreactivity
14 | QVQLVESGGGLVQAAGSLRLSCAASGSIFFYNAMGWYRQAPGIERELVAAITGGGGRTYYADSVKGRFTISRDNAKNTVYLQMNSLKPEDTAVYYCNKDWAQPYDYWGQGTQVTVSS | high polyreactivity
15 | QVQLVESGGGLVQAGGSLRLSCAASGRTFNRYAMGWYRQAPGKERELVAAINWSGGSTYYADSVKGRFTISRDNAKNTVYLQMNSLKPEDTAVYYCNAGLGKFPVKGGRRYRLDYWGQGTQVTVSS | low polyreactivity
16 | QVQLVESGGGLVQAGGSLRLSCAASGRTFDAYAMGWYRQAPGKERELVAAISSGGSTNYADSVKGRFTISRDHAKNTVYLQMNSLKPEDTAVYYCAAEYIQYLFYSVRVAYDYWGQGTQVTVSS | low polyreactivity
17 | QVQLVESGGGLVQSGGSLRLSCAASGYIFGVNAMGWYRQAPGKERELVAAIDSGSRTYYADSVKGRFTISRDNAKNTVYLQMNSLIPEDTAVYYCATNFYVSYGGGYYTIWYDYWGQGTQVTVSS | low polyreactivity
18 | QVQLVESGGGLVQAGGSLRLSCAASGYIYLPYAMGWYRQAPGKERELVAAIRWSGGSTYYADSVKGRFTISRDNAKNTVYLQMNSLKPEDTAVYYCAAYYVARDRRYPKAYSYEYWGQGTQVTVSS | high polyreactivity
19 | HVQLVESGGGLVQAGGSLRLSCAPSGRTFIGYAMGWYRQAPGKERELVAAITSRGRTNYADSVKGRFTISRDNAKNTVYLQMNSLNPEDTAVYYCAARTYGYWYYGFRGDYWGQGTQVTVSS | high polyreactivity
20 | QVQLVESGGFLVQAGGSLRLSCAASGFTFAKYAMGWSRQAPRKERELVAVITSSGGRTYYADSVKARFTISRDTAKNTVYLQMISLKPEDTAVYYCNAGKYVYATSQYDYWGQGTQVTVSS | high polyreactivity
21 | QVQLVESGGGLVQAGGSLRLSAASGSTLAGNTMGWYRQAPGKERELVAAINDSGGSTYYADSVKGRFTISRDNAKNTVYLQMNSLKPEETAVYYCNADGSAYIEDGYDYWGQGTQVTVSS | low polyreactivity
22 | QVQLVESGGGLVQAGGSLRLSCAASGGTFPYYAMGWYRQAPGKERELVADISGTDGSTYYADSVKGRFTISRDNAKNTVYLQMNSLKPEDTAVYYCNAEPHWWYWDYDYWGQGTQVTVSS | high polyreactivity

Row | Sequence | polyreactivity (PSR sort gate)
23 | QVQLVESGGGLVQAGGSLRLSCAASGIILGSYAMGWYRQAPGTERELVAGITSGGGTYYADSVKGRFTISRDNAKNTVYLQMNSLKPEDTAVYYCAKLYFHYYRYGYWGQGTQVTVSS | low polyreactivity
24 | QVQLVESGGGEVQAGGSLRLSCAASGSIFRFYTMGWSRQAPGTERELVATLARGGSTNYADSVKGRFTISRDTAKNTVYLQMNSLKPEDTAVYYCNVAALYSTYCGYGYDYSGQGTQVTVSS | high polyreactivity
25 | QVQLVESGGGLVQAGGSLRLSCAASGSILFSYAMGWYIQAPGKEREFVAAITFSGGRTYYADSVKGRFTISRDNAKNTVYLQMNSLKPEDTAVYYCAASYLLIYTQGYRAEYEYWGQGTQVTVSS | low polyreactivity
26 | QVQLVESGGGLVQAGGSLRLSCAASGRIFSYAMGWYRQAPGKERELVAGSTYYADSVKGRFTISRDNAKNTVYLQMNSLKPEDTAVYYCNVGGYGLRGDYWGQGTQVTVSS | low polyreactivity
27 | QVQLVESGGGLVQAGGSLRLSCAASGSIFPINARGWYRQAPGKERELVAAISRRTGSTYYPDSVKGRFTISRDNAKNTVYVQMNSLKPEDTAVYYCAASYGTTRQRWLDYWGQGTQVTVSS | high polyreactivity
28 | QVQLVESGGGLVQAGGSLRLSCAASGSTQYSYAMGWYRQAPGKERELVAAINSGSNTYYADSVKGRFTISRDNAKNTVYLQMNSLKPEDTAVYYCAAKGIIYTGYDGARRAYGYWGQGTQVTVSS | high polyreactivity
29 | QVQLVESGGGLVQAGGSLRLSCAASGRTFAQYTMGWYRQAPGKERELVAAISYRGSSTYYADSVKGRFTISRDNAKNTVYLQMNSLKPEDTAVYYCAVVYSIYTGGYDYWGQGTQVTVSS | high polyreactivity
30 | QVQLEESGGGLVQAGGSLRLSCAASGSIFGANAMAWYRQAPGKERDLVAAITTSGGSTFYADSVKGRFTISRDNAKNTVYLQMNCLKPEDNAVYYCAAEWVYSIKSVYIYEMYYWGQGTQVTVSS | low polyreactivity
31 | QFQLVESGGGLVQAGGSLRLSCAASGSIFGVYVMGWSRQGAGKERELVAAITRGASTNYADSVKGRFTISRDNAKNTVYLQMNSLKPEDTAVYYCAAESGNRYEYWGQGTQVTVSS | low polyreactivity
32 | QVQHVESGGGLVQAGGSLRLTCAASGTIFRYYTMRWYRQAPGKERELVASISRGGNTYYADSVKGRFTISRENAKNTVYLPMNSLKPEDTAVSYCAALPGSFFQAHFYYWGQGTQVTVSS | low polyreactivity
33 | QVQLVESGGGLVQAGGSLRLSSAASGRIFSRNTMGCYRQAPGKERELVAAIRYSGGRTYYADSVKGRFTISRDNAKNTVYLQMNCLKQEDTAVYYCAARWYGQGVSYRMDYWGQGTQVTVSS | high polyreactivity
34 | QVQLVESGGGLDQAGGSLRLSCAASGSTFVGYAMGWYRQAPGKERELVAAISQSDVSTYYADSVKGRFTISRDNAKNTVYLQMNSLKPEDTAVYYCAADRGGLRWFWQVLYDYWGQGTQVTVSS | low polyreactivity
35 | QVHLVEAGGGLVQAGGSRRLSCAASGGIFTDYTMGWYRQAPGKETELVAAITWTGGSTYYADSVKGRFTISRDNAKNTVYLQMNSLKPEDTAVYDCAADDYWVNLDYWGQGTQVTVSS | low polyreactivity
36 | QVQLVESGGGLVQAGGSLRLSCAASGSIFFGNAMGWYRQATGKERELVAAITRRGGSTYYADSVKGRFTISRDNAKNTVYLQMNSLKPEDTAVYYCNAVSKRYGYGYWGQGTQVTVSS | high polyreactivity
37 | QVQLVESGGGLVQAGGSLRLSCAASGSTFNRYVMGWYRQAPGKERELVAANGGRTYYADSVKGRFTISRDNAKNTVYLQMNSLKPEDTAVYYCNARSYKHPYYRFDYWGQGTQVTVSS | high polyreactivity
38 | QVQLVESGGGLVQAGGSLRLSCAASGSTFNRNTMGWYRQAPGKERELVASINRGGSTYYADSVKGRFTISRDNAKNTVYLQMNSLKPEDTAVYYCAKRVRKSYTGTQAPKKFGYWGQGSQVTVSS | low polyreactivity
39 | QVQLVESGGGLVQAGGSLRLSCAASGFTFYKYAMGWYRQAPGKERELVAAISYRGGRTYYADSVKGRFTISRDNAKNTVYLQMNSLKPEDTAVYYCAARGYVWNIGRYYWGQGTEVTVSS | high polyreactivity
40 | QVQLEESGGGLVQAGGSLRLSCAASGSTFQENAMGWYRQAPGKEREFVAAISGSGGSTYYADSVKGRFTISRDNAKNTVYLQMNSLKPEDTAVYYCAARHYFRSRRRYDYWGQGTQVTVSS | low polyreactivity
41 | QVQLVESGGGLVQAGGSLRLSCAASGITFYDYDMGWYRQAPGKERELVAAINSGASTSYADSVKGRFTISRDNAKNTVYLQMNSLKPEDTAVYYCNADVRVDYLSGDLDYWGQGTQVTVSS | low polyreactivity
42 | QVQLVESGGGLVQAGGSLRLSCAASGSTFSRNAMGWYRQAPGKERELVAAISRRGDTTYYADSVKGRFTISRDNAKNTVYLQMNSLKPEDTAVYYCNRLTIGSSSYDYWGQGTQVTVSS | high polyreactivity
43 | QVQLVDSGGGLVQAGGSLRLSCAASGSTFWFYAMGWYRQAPGNERELVAVISNSGSTYYADSVKGRFRISRDNAKNTVYLQMNSLKPEDTAVYYCNKDGGGDSYWYDYWGQGTQVTVSS | low polyreactivity
